Laboratory results from publication PMC3751641, “Mena/VASP and αII-Spectrin complexes regulate cytoplasmic actin networks in cardiomyocytes and protect from conduction abnormalities and dilated cardiomyopathy” (Cell Communication and Signaling : CCS, 2013).

Columns and labels:
[1] = target: T1, GST-α9A (α9 repeat of the αII-Spectrin splice variant SH3i, with the alternatively spliced 20 amino acids) (mouse, UniProt P16546 893-1088); assay: pull-down; 5 μg GST or equimolar GST-fusion proteins immobilised on glutathione sepharose, incubated with cleared adult mouse heart lysate (40 mM Hepes-NaOH pH 7.4, 75 mM NaCl, 1% NP40, protease inhibitors); blot with anti-Mena; settings: one partner purified
T1 construct: mouse αII-Spectrin, splice variant SH3i (protein ID AAI50942), amino acids Q893-E1088: the α9 repeat with the SH3 domain and the 20-residue insert T1053-L1072; numbers count on: SH3i, AAI50942; cDNA subcloned into the pGEX-6P2 vector

[2] = target: T2, SH3i, αII-Spectrin splice variant, endogenous in adult mouse heart (mouse (endogenous in mouse heart), UniProt P16546 1-2472); assay: co-IP; adult mouse heart lysate incubated with 5 μg purified anti-Mena, anti-αII-Spectrin or anti-SH3i antibodies, then protein A-sepharose; washed in lysis buffer; Western blot; GST-specific antibodies as control; settings: partners not purified
T2 construct: source: endogenous, adult mouse heart lysate

- fold more Mena precipitated than by α9 or SH3 [1]: ≥ 10 fold
- fold more Mena precipitated than by general αII-Spectrin-specific antibodies [2]: 8 fold
B1: Mena (mammalian Enabled) (natural protein, mouse (endogenous in mouse heart), UniProt Q03173-3 1-541, looked up)
chain: MSEQSICQARAAVMVYDDANKKWVPAGGSTGFSRVHIYHHTGNNTFRVVGRKIQDHQVVINCAIPKGLKYNQATQTFHQWRDARQVYGLNFGSKEDANVFASAMMHALEVLNSQEAGPTLPRQNSQLPAQVQNGPSQEELEIQRRQLQEQQRQKELERERMERERLERERLERERLERERLEQEQLERQRQEREHVERLERERLERLERERQERERERLEQLEREQVEWERERRMSNAAAPASAETPLNPELGDSSASEPGLQAASQPAESPTPQGLVLGPPAPPPPPPLPSGPAYASALPPPPGPPPPPPLPSTGPPPPPPPPPPLPNQAPPPPPPPPAPPLPASGIFSGSTSEDNRPLTGLAAAIAGAKLRKVSRVEDGSFPGGGNTGSVSLASSKADAGRGNGPLPLGGSGLMEEMSALLARRRRIAEKGSTIETEQKEDRNEDAEPITAKAPSTSTPEPTRKPWERTNTMNGSKSPVISRPKSTPSSQPSANGVQTEGLDYDRLKQDILDEMRKELAKLKEELIDAIRQELSKSNTA
notes: mouse Mena, endogenous; two isoforms exist in the mouse heart, the general one (~80 kDa, 541 aa) and the neuronal splice variant (~140 kDa); source: endogenous, adult mouse heart lysate
